Assay: pNPP hydrolysis, kinetic parameters
Assay type: biochemical
Details: generic substrate pNPP, 0-60 mM, pH 6.8, room temperature
Description: For pNPP hydrolysis, 200 ng of PTP was incubated with varing amounts of the generic substrate (0-60 mM) in assay buffer (50 mM Tris pH 6.8 and 2 mM DTT) in a total volume of 50 μl at room temperature. Plates were read at 405 nm and kinetic parameters were determined using a non linear regression programme (Graphpad, Prism®).

B1: Sap-1WT: wild-type PTP-Sap1 catalytic domain (GST fusion) tested on pNPP (protein)
chain: LKRRNKKKQQKPELRDLVFSSPGDIPAEDFADHVRKNERDSNCGFADEYQQLSLVGHSQSQMVASASENNAKNRYRNVLPYDWSRVPLKPIHEEPGSDYINASFMPGLWSPQEFIATQGPLPQTVGDFWRLVWEQQSHTLVMLTNCMEAGRVKCEHYWPLDSQPCTHGHLRVTLVGEEVMENWTVRELLLLQVEEQKTLSVRQFHYQAWPDHGVPSSPDTLLAFWRMLRQWLDQTMEGGPPIVHCSAGVGRTGTLIALDVLLRQLQSEGLLGPFSFVRKMRESRPLMVQTEAQYVFLHQCILRFLQQSAQAPAEKEVPYEDVENLIYENVAAIQAHKLEV
modifications: left off: a dimerising Fc or GST
notes: wild-type PTP-Sap1 catalytic domain (GST fusion) tested on pNPP
**Q.** For B1, which Km is on record?
**A.** 2660 µM

— patent US20060241020A1, “Protein tyrosine phosphatase inhibitors” (Applied Research Systems ARS Holdings N.V., priority 2002, published 2006)
